B1: Protein XRP2 (Homo sapiens), O75695 (parent)
chain: MGCFFSKRRKADKESRPENEEERPKQYSWDQREKVDPKDYMFSGLKDETVGRLPGTVAGQQFLIQDCENCNIYIFDHSATVTIDDCTNCIIFLGPVKGSVFFRNCRDCKCTLACQQFRVRDCRKLEVFLCCATQPIIESSSNIKFGCFQWYYPELAFQFKDAGLSIFNNTWSNIHDFTPVSGELNWSLLPEDAVVQDYVPIPTTEELKAVRVSTEANRSIVPISRGQRQKSSDESCLVVLFAGDYTIANARKLIDEMVGKGFFLVQTKEVSMKAEDAQRVFREKAPDFLPLLNKGPVIALEFNGDGAVEVCQLIVNEIFNGTKMFVSESKETASGDVDSFYNFADIQMGI

Variants of: B1
Details: with arl3_mouse Arl3, Q9WUL7
Chain of arl3_mouse Arl3, Q9WUL7 (Q9WUL7 whole entry): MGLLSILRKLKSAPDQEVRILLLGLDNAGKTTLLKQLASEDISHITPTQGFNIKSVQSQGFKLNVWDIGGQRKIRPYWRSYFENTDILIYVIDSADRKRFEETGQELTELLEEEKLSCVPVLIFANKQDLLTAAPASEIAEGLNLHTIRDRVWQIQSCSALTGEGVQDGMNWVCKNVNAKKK

Row | effect of a mutation on the interaction | Variant
1 | decreasing interaction | MGCFFSKRRKADKESRPENEEERPKQYSWDQREKVDPKDYMFSGLKDETVGRLPGTVAGQQFLIQDCENCNIYIFDHSATVTIDDCTNCIIFLGPVKGSVFFRNCRDCKCTLACQQFRVHSCRKLEVFLCCATQPIIESSSNIKFGCFQWYYPELAFQFKDAGLSIFNNTWSNIHDFTPVSGELNWSLLPEDAVVQDYVPIPTTEELKAVRVSTEANRSIVPISRGQRQKSSDESCLVVLFAGDYTIANARKLIDEMVGKGFFLVQTKEVSMKAEDAQRVFREKAPDFLPLLNKGPVIALEFNGDGAVEVCQLIVNEIFNGTKMFVSESKETASGDVDSFYNFADIQMGI [R120H;D121S]
2 | decreasing interaction | MGCFFSKRRKADKESRPENEEERPKQYAADQREKVDPKDYMFSGLKDETVGRLPGTVAGQQFLIQDCENCNIYIFDHSATVTIDDCTNCIIFLGPVKGSVFFRNCRDCKCTLACQQFRVRDCRKLEVFLCCATQPIIESSSNIKFGCFQWYYPELAFQFKDAGLSIFNNTWSNIHDFTPVSGELNWSLLPEDAVVQDYVPIPTTEELKAVRVSTEANRSIVPISRGQRQKSSDESCLVVLFAGDYTIANARKLIDEMVGKGFFLVQTKEVSMKAEDAQRVFREKAPDFLPLLNKGPVIALEFNGDGAVEVCQLIVNEIFNGTKMFVSESKETASGDVDSFYNFADIQMGI [S28A;W29A]
3 | decreasing interaction | MGCFFSKRRKADKESRPENEEERPKQYSWDQREKVDPKDYMFSGLKDETVGRLPGTVAGQQFLIQDCENCNIYIFDHSATVTIDDCTNCIIFLGPVKGSVFFRNCRDCKCTLACQQFHVRDCRKLEVFLCCATQPIIESSSNIKFGCFQWYYPELAFQFKDAGLSIFNNTWSNIHDFTPVSGELNWSLLPEDAVVQDYVPIPTTEELKAVRVSTEANRSIVPISRGQRQKSSDESCLVVLFAGDYTIANARKLIDEMVGKGFFLVQTKEVSMKAEDAQRVFREKAPDFLPLLNKGPVIALEFNGDGAVEVCQLIVNEIFNGTKMFVSESKETASGDVDSFYNFADIQMGI [R118H]
4 | decreasing interaction | MGCFFSKRRKADKESRPENEEERPKQYSWDQREKVDPKDYMFSGLKDETVGRLPGTVAGQQFLIQDCENCNIYIFDHSATVTIDDCTNCIIFLGPVKGSVFFRNCRDCKCTLACAQFRVRDCRKLEVFLCCATQPIIESSSNIKFGCFQWYYPELAFQFKDAGLSIFNNTWSNIHDFTPVSGELNWSLLPEDAVVQDYVPIPTTEELKAVRVSTEANRSIVPISRGQRQKSSDESCLVVLFAGDYTIANARKLIDEMVGKGFFLVQTKEVSMKAEDAQRVFREKAPDFLPLLNKGPVIALEFNGDGAVEVCQLIVNEIFNGTKMFVSESKETASGDVDSFYNFADIQMGI [Q115A]

Variants of: B1
Details: with arl3_mouse Arl3, Q9WUL7
Remark: another data set of the same source

Row | Variant | effect of a mutation on the interaction
5 | MGCFFSKRRKADKESRPENEEERPKQYSWDQREKVDPKDYMFSGLKDETVGRLPGTVAGQQFLIQDCENCNIYIFDHSATVTIDDCTNCIIFLGPVKGSVFFRNCRDCKCTLACQAFRVRDCRKLEVFLCCATQPIIESSSNIKFGCFQWYYPELAFQFKDAGLSIFNNTWSNIHDFTPVSGELNWSLLPEDAVVQDYVPIPTTEELKAVRVSTEANRSIVPISRGQRQKSSDESCLVVLFAGDYTIANARKLIDEMVGKGFFLVQTKEVSMKAEDAQRVFREKAPDFLPLLNKGPVIALEFNGDGAVEVCQLIVNEIFNGTKMFVSESKETASGDVDSFYNFADIQMGI [Q116A] | decreasing interaction
6 | MGCFFSKRRKADKESRPENEEERPKQYSWDQREKVDPKDYMFSGLKDETVGRLPGTVAGQQFLIQDCENCNIYIFDHSATVTIDDCTNCIIFLGPVKGSVFFRNCRDCKCTLACQQFAVRDCRKLEVFLCCATQPIIESSSNIKFGCFQWYYPELAFQFKDAGLSIFNNTWSNIHDFTPVSGELNWSLLPEDAVVQDYVPIPTTEELKAVRVSTEANRSIVPISRGQRQKSSDESCLVVLFAGDYTIANARKLIDEMVGKGFFLVQTKEVSMKAEDAQRVFREKAPDFLPLLNKGPVIALEFNGDGAVEVCQLIVNEIFNGTKMFVSESKETASGDVDSFYNFADIQMGI [R118A] | decreasing interaction

The next lines start with the values.

Row | effect of a mutation on the interaction | Variant
7 | decreasing interaction | MGCFFSKRRKADKESRPENEEERPKQYSWDQREKVDPKDYMFSGLKDETVGRLPGTVAGQQFLIQDCENCNIYIFDHSATVTIDDCTNCIIFLGPVKGSVFFRNCRDCKCTLACQQFRVRDCRKLEVFLCCATQPIIESSSNIKFGCFQWYYPELAFQFKDAGLSIFNNTWSNIHDATPVSGELNWSLLPEDAVVQDYVPIPTTEELKAVRVSTEANRSIVPISRGQRQKSSDESCLVVLFAGDYTIANARKLIDEMVGKGFFLVQTKEVSMKAEDAQRVFREKAPDFLPLLNKGPVIALEFNGDGAVEVCQLIVNEIFNGTKMFVSESKETASGDVDSFYNFADIQMGI [F177A]
8 | decreasing interaction | MGCFFSKRRKADKESRPENEEERPKQYSWDQREKVDPKDYMFSGLKDETVGRLPGTVAGQQFLIQDCENCNIYIFDHSATVTIDDCTNCIIFLGPVKGSVFFRNCRDCKCTLACQQFRVRDCRKLEVFLCCATQPIIGSSSNIKFGCFQWYYPELAFQFKDAGLSIFNNTWSNIHDFTPVSGELNWSLLPEDAVVQDYVPIPTTEELKAVRVSTEANRSIVPISRGQRQKSSDESCLVVLFAGDYTIANARKLIDEMVGKGFFLVQTKEVSMKAEDAQRVFREKAPDFLPLLNKGPVIALEFNGDGAVEVCQLIVNEIFNGTKMFVSESKETASGDVDSFYNFADIQMGI [E138G]

Source: IntAct's records for PubMed 18376416
